The values below are quoted from earlier work in article PMC7825312.

Broadly, the pKa is the negative logarithm of the acid dissociation constant.

The target in the data set is Cys38 (UniProt position 39, SFLKECPSGRI). Kind of data set: UV-vis.

Regarding Recoverin (Bos taurus), the pKa is on record as 7.6.
